Earlier results as cited in publication PMC10746543, “Design principles for cyclin K molecular glue degraders” (Nature Chemical Biology, 2023).

Target: CDK12-cyclin K (Homo sapiens) (UniProt Q9NYV4)
Sequence (Q9NYV4 whole entry, chain 1 of 2): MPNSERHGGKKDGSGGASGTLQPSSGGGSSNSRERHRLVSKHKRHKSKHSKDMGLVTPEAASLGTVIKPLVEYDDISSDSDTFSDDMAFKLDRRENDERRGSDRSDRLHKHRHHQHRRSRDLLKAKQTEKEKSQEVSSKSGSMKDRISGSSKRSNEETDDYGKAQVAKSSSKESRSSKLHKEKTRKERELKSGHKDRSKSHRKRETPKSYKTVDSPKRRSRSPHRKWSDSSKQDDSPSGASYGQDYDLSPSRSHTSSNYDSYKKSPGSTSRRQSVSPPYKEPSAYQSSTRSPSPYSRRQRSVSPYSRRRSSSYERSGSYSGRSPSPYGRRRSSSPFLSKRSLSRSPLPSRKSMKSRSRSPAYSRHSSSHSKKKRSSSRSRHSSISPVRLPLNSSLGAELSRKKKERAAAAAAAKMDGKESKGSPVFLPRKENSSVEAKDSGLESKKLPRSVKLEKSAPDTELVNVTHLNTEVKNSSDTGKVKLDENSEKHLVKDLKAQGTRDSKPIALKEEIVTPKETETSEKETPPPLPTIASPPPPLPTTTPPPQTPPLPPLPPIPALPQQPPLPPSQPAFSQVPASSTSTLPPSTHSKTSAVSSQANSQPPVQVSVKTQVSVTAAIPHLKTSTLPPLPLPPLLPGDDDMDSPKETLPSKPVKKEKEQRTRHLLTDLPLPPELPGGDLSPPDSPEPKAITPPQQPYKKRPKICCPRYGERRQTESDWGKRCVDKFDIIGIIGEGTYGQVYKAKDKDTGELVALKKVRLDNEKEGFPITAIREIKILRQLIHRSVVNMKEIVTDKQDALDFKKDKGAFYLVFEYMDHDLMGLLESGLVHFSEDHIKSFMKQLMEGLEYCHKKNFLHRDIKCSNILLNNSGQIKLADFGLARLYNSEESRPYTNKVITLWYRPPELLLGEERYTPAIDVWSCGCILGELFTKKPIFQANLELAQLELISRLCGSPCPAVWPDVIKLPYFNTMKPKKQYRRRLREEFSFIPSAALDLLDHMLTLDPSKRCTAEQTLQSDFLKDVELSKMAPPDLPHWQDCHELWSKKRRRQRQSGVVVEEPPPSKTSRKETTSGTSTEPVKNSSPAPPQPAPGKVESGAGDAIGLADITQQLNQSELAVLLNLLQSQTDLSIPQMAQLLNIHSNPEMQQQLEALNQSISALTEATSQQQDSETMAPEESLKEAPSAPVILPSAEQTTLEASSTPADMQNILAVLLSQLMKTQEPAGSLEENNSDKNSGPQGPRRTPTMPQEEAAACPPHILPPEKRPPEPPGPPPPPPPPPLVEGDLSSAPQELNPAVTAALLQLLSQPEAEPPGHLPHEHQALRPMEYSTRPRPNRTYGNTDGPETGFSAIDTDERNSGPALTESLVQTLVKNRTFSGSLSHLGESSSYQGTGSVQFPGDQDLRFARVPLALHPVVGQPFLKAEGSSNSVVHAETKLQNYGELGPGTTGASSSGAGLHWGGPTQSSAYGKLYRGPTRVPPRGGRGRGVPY
Sequence (O75909 whole entry, chain 2 of 2, further chain): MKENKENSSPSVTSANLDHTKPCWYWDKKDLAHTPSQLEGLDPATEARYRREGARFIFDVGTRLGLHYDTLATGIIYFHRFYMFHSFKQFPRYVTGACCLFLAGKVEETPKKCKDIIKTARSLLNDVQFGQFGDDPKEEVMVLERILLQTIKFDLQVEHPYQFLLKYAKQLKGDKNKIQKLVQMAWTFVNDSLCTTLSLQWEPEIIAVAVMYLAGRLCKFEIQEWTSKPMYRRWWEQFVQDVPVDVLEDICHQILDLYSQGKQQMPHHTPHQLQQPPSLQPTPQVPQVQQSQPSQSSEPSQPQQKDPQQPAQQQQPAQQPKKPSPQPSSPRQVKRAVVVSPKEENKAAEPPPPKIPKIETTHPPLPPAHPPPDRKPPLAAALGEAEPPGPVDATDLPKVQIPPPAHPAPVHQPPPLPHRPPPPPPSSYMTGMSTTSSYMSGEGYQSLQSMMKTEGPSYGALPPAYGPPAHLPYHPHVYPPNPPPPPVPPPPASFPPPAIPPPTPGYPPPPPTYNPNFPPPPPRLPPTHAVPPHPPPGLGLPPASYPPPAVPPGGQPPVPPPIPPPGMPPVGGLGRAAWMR

Sequence of DDB1 (Q16531 2-1140): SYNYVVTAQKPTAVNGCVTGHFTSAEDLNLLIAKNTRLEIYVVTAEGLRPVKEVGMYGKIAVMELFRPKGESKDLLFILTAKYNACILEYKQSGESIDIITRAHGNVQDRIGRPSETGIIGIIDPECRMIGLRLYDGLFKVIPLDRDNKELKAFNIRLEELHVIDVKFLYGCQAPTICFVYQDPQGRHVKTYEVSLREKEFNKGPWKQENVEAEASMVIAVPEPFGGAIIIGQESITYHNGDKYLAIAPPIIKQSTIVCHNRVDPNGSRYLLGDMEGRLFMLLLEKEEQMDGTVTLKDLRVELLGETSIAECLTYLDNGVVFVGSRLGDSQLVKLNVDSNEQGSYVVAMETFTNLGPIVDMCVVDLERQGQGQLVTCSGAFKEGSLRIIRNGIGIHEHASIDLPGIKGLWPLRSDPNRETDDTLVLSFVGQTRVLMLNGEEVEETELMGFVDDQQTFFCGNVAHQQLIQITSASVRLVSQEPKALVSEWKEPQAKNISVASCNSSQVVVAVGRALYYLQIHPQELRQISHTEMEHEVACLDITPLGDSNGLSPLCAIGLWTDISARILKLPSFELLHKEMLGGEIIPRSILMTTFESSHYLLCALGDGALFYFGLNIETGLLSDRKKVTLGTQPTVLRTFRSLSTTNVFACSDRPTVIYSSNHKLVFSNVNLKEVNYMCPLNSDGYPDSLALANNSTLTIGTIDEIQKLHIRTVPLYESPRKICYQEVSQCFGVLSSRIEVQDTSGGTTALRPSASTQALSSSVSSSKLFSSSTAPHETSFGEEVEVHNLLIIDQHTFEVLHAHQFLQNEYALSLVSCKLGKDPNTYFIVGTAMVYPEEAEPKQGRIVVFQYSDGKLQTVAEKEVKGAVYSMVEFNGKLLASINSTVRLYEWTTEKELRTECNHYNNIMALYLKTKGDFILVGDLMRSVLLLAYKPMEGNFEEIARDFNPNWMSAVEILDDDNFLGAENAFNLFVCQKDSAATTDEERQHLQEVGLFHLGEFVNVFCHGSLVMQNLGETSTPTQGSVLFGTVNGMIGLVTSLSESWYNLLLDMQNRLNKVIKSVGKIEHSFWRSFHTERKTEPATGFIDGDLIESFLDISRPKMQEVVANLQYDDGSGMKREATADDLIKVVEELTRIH

Kd: 50 µM
Substance: DDB1 (from UniProt Q16531)
